Results published in US20160137713A1 (HANALL BIOPHARMA, published 2016).
One block for each binder: values may come before it.

Key:
[1] = molecular target: T1, rat FcRn on Rat-2 cells (rat, UniProt P13599 23-366; P07151 21-119); test: FACS on rat FcRn-expressing Rat-2 cells at pH 6.0 and pH 7.4, FITC anti-human IgG goat antibody; MFI relative to hIgG
T1 construct: whole, on cells
T1 sequence (looked up): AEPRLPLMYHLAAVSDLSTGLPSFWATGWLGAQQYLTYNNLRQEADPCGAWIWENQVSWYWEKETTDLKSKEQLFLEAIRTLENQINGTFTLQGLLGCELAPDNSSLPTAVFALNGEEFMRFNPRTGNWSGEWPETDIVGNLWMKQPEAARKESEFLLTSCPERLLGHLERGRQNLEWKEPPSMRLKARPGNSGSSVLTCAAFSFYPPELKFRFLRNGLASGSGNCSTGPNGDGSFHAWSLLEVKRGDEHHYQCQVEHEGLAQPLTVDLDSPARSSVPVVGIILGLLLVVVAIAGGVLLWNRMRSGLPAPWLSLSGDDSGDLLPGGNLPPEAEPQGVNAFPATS
T1 sequence (b2m, looked up): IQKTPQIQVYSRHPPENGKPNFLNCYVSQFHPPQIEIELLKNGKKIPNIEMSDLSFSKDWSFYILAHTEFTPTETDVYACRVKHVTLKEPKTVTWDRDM
Method: Rat-2 (KCTC #AC28203), rat fibroblasts stably expressing rat FcRn, were cultured in 10% FBS DMEM medium, and then detached from the culture plate by trypsin treatment. The cells were washed three times with cold binding buffer (PBS pH 6.0, 10 mM EDTA), and then diluted in binding buffer at a concentration of 10⁵ cells/ml. 100 μl of the cell dilution was dispensed into each 1.5-ml tube in such a manner that each tube contained 10⁴ cells, and 1 μl of HL161 antibody (1 mg/ml) was added to the dispensed cells. Next, the cells were incubated on ice. As control antibodies, 1 μl of each of mouse 1G3 antibody and human IgG antibody (Abcam, cat#. 409120), which bind to rat FcRn, was used. The 1G3 antibody was produced and purified from mouse hybridoma cells (ATCC CRL2434). The cells were recovered by centrifugation at 4° C. and 4000 rpm for 5 minutes, after which the cells were washed once with binding buffer and resuspended in 100 μl of binding buffer. As FITC-conjugated secondary antibody, 1 μl of anti-human IgG goat antibody (Invitrogen, cat#. A11013) was added to the cells. In the case of the experiment using anti-rat FcRn mouse antibody, the anti-mouse IgG goat antibody (Invitrogen, cat#. A11001) was incubated with the cells on ice for 1 hour, and then the cells were recovered by centrifugation at 4° C. and 4000 rpm for 5 minutes, washed once with binding buffer, resuspended in 400 μl of binding buffer and analyzed by FACS to examine the cross-reactivity of the HL161 antibodies with rat FcRn (see FIG. 4). An experiment at a pH of 7.4 was performed using binding buffer at a pH of 7.4 in the same manner as the experiment using binding buffer at a pH of 6.0. The degree of the binding of each antibody to rat FcRn was presented as relative MFI based on human IgG.

[2] = molecular target: T2, mouse FcRn on 3T3-L1 cells (mouse, UniProt Q61559 22-365; P01887 21-119); test: FACS on mouse FcRn-expressing 3T3-L1 cells at pH 6.0 and pH 7.4, FITC anti-human IgG goat antibody; MFI relative to hIgG
T2 construct: whole, on cells; also called NIH3T3L1
T2 sequence (looked up): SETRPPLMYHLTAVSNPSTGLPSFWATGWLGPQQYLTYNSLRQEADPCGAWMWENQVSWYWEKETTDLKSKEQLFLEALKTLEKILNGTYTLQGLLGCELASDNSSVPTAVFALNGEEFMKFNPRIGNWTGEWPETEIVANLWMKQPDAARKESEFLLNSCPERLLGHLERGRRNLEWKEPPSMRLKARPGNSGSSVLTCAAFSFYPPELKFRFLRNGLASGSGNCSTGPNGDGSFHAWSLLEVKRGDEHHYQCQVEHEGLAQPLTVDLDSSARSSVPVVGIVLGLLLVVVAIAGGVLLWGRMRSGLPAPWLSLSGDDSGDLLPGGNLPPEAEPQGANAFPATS
T2 sequence (b2m, looked up): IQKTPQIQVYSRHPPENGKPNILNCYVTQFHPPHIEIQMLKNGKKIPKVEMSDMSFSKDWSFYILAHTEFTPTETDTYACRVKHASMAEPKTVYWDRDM
Method: 3T3-L1 cells stably expressing mouse FcRn were cultured in 10% FCS DMEM medium, and then detached from the culture plate by trypsin treatment. The cells were washed three times with cold binding buffer (PBS, pH 6.0 10 mM EDTA), and then diluted in binding buffer at a concentration of 10⁵ cells/ml. 100 μl of the cell dilution was dispensed into each 1.5-ml tube in such a manner that each tube contained 10⁴ cells, and 1 μl of HL161 antibody (1 mg/ml) was added to the dispensed cells. Next, the cells were incubated on ice. As control antibodies, 1 μl of each of rabbit antibody (Santacruz, sc-66893) and human IgG (Abcam, cat#. 409120), which bind to mouse FcRn, was used. The cells were recovered by centrifugation at 4° C. and 4000 rpm for 5 minutes, after which the cells were washed once with binding buffer and resuspended in 100 μl of binding buffer. As FITC-conjugated secondary antibody, 1 μl of anti-human IgG goat antibody (Invitrogen, Cat*. A11013) was added to the cells. In the case of the experiment using anti-mouse FcRn rabbit antibody, the anti-rabbit antibody was incubated with the cells on ice for 1 hour, and then the cells were recovered by centrifugation at 4° C. and 700 g for 5 minutes, washed once with binding buffer, resuspended in 400 ul of binding buffer and analyzed by FACS to examine the cross-reactivity of the HL161 antibodies with mouse FcRn (see FIG. 4). An experiment at a pH of 7.4 was performed using binding buffer at a pH of 7.4 in the same manner as the experiment using binding buffer at a pH of 6.0. The degree of the binding of each antibody to mouse FcRn was presented as relative MFI based on human IgG.

[3] = molecular target: T3, human FcRn on HEK293 cells (human, UniProt P55899 24-365; P61769 21-119); test: FACS competition on hFcRn HEK293 cells at pH 6.0; remaining binding of 100 nM Alexa488-labeled hIgG1 (m14) with 1000 nM competitor antibody, percent of the tube without competitor
T3 construct: whole, on cells; also called hFcRn
Method: (§1) In stable HEK293 cells expressing human FcRn, the blocking of the antibody against FcRn was analyzed by FACS. The antibody was diluted in binding buffer (PBS pH 6.0, 10 mM EDTA) at concentrations of 2,000 nM, […] to make 50 μl of dilutions, which were dispensed into tubes. […] Stable HEK293 cells were diluted in binding buffer at a concentration of 2,500,000 cells/ml, and 40 μl of the cell dilution was added to each of the labeled antibody-containing tubes. Thus, a final volume of 100 μl contained 100,000 cells, 100 nM labeled antibody and 1000 nM, 500 nM or 250 nM competitor antibody. The cells were washed once with 150 μl of buffer (pH 6.0), and pellets were obtained therefrom and resuspended in 150 μl of buffer having pH difference. The suspension was transferred into a tube for FACS analysis. The cells were analyzed by FACS using BD FACSDiva™ v6.1.3 software (BD Bioscience). The results of the analysis were expressed as mean fluorescence intensity (MFI).
(§2) The MFI of the test group was processed after subtracting the MFI (background signal) measured in cells alone.

[4] = molecular target: T3, human FcRn on HEK293 cells; test: FACS on hFcRn-overexpressing HEK293 cells at pH 7.4, Alexa488 anti-human goat antibody; MFI relative to hIgG1
Method: (§3) In stable HEK293 cells expressing human FcRn, the degrees of binding of antibody to FcRn at various pHs were analyzed using a FACS system. Specifically, 100,000 stable HEK293 cells were washed with PBS and centrifuged in a table top microcentrifuge at 4500 rpm for 5 minutes to obtain pellets. 1 μg of antibody was added to 100 μl of pH 6.0 or pH 7.4PBS/10 mM EDTA. The cell pellets were resuspended in 100 μl of the antibody solution and incubated on ice for 60 minutes. The cells were washed once with 150 μl of buffer having pH difference, and then pellets were obtained therefrom. Alexa488-labeled anti-human antibody goat antibody (1 mg/ml) was diluted at 1:20 in buffer having pH difference, and the pellets were resuspended in 100 μl of the buffer, and then cultured on ice for 60 minutes. The cells were washed once with 150 μl of buffer having pH difference, and pellets were obtained therefrom and resuspended in buffer having pH difference. The suspension was transferred into a tube for FACS analysis. These cells were analyzed by FACS using BD FACSDiva™ v6.1.3 software (BD Bioscience). The results of the analysis were expressed as Mean Fluorescence Intensity (MFI) (see FIG. 2).

[5] = molecular target: T3, human FcRn on HEK293 cells; test: FACS competition on hFcRn HEK293 cells at pH 6.0; remaining binding of 100 nM Alexa488-labeled hIgG1 (m14) with 500 nM competitor antibody, percent of the tube without competitor
Method: as §1, §2

[6] = molecular target: T4, soluble human FcRn (human, UniProt P55899 24-297; P61769 21-119); test: SPR, shFcRn immobilised, pH 6.0
T4 construct: extracellular domain;mature; Non-covalent heterodimer secreted by 293 cells, purified on IgG Sepharose; also called shFcRn; soluble FcRn
Method: (§4) Measurement of the binding ability of antibody by SPR was performed by immobilizing shFcRn as a ligand onto a Proteon GLC chip (Bio-Rad) and measuring affinity.
(§5) The analysis of ligand and analyte was performed using a Proteon GLC chip, and the interaction was analyzed at a pH of 6.0 and a pH of 7.4. Immobilization of the ligand was activated by injecting a 1:1 mixture of 1×EDAC (EDC) and 1× Surfo-NHS for 5 minutes. shFcRn was diluted in 10 mM sodium acetate (pH 4.5) at a concentration of 25 μg/ml and added to the ligand at a flow rate of 30 μl/min for 5 minutes. […] The analyte antibody was allowed to flow on the immobilized chip at a flow rate of 30 μl/min. […] The association time of the analyte antibody was 240 seconds, and the dissociation time was 600 seconds. Regeneration of the chip was performed by injecting 10 mM glycine (pH 2.5) at a flow rate of 100 μl/min for 18 seconds. Based on sensorgrams resulting from six concentrations of the analyte, kinetics analysis was performed using Proteon XPR36 software.

[7] = molecular target: T4, soluble human FcRn; test: SPR, shFcRn immobilised, pH 7.4
Method: as §4, §5

[8] = molecular target: T3, human FcRn on HEK293 cells; test: FACS on hFcRn-overexpressing HEK293 cells at pH 6.0, Alexa488 anti-human goat antibody; MFI relative to hIgG1
Method: as §3

[9] = molecular target: T3, human FcRn on HEK293 cells; test: FACS competition on hFcRn HEK293 cells at pH 6.0; remaining binding of 100 nM Alexa488-labeled hIgG1 (m14) with 250 nM competitor antibody, percent of the tube without competitor
Method: as §1, §2

binding result [1]: binds | binding result [2]: binds
B1: HL161-1A (antibody, V domains shown)
VH: QVQLVQSGGGLVQPGRSLRLSCAASGFSFGEYGMHWVRQAPGKGLEWVSGVSWNSGSIAYADSVRGRFTISRDNSKNSLYLQMNSLRAEDTAVYYCARGRSMDVWGQGTTVTVSS
VL: NFMLTQPASVSGSPGQTITISCTGSSSDVGGYNYVSWYQQHPGKAPQLIIYDVTKRPSGVSNRFSGSKSGNSASLTISGLQAEDEADYYCSSYSSSTFYVFGTGTKVTVL
notes: Whole human IgG from pNATAB vectors

binding result [1]: binds | binding result [2]: binds
B2: HL161-11G (antibody, V domains shown)
VH: QMQLVESGGGVVQPGRSLRLSCVGSGFNFNSYGIHWVRQAPGKGLEWVGGIFYDGSQVKYADSVKGRVSISRDNSKNTAYLQMNSLRAEDTAVYYCARRNLLDYWGQGTVVTVSS
VL: NFMLTQPASVSGSPGQSITISCTGSSSDVGGYNYVSWYQQHPGKAPQLIIYDVTKRPSGVSNRFSGSKSGNSASLTISGLQAEDEADYYCSSYSSSTFYVFGTGTKVTVL
notes: Whole human IgG from pNATAB vectors; also called h1161-11G

The next lines start with the binder.

B3: HL161-6C (antibody, V domains shown)
VH: QVQLVESGAEVKKPGASVKVSCKASGYTFTSYYMHWVRQAPGQGLEWMGIINPSGGSTSYAQKFQGRVTMTRDTSTSTVYMELSSLRSEDTAVYYCARGGGAFDIWGQGTMVTVSS
VL: DIQMTQSPSSVSASVGDRVTITCRASQGISNWVAWYQQKPGKAPKLLIYAASSLQSGVPSRFSGSGSGTDFTLTISSLQPEDFAIYYCQQGHSFPYTFGQGTKVEIK
notes: as for B1
Relative MFI(%) at 1000nM [3]: 81.1% | Relative MFI (Fold) [4]: 1.3 fold | Relative MFI(%) at 500nM [5]: 84.7% | koff [6]: 0.0019 s⁻¹ | kon [6]: 1e+06 M⁻¹ s⁻¹ | koff [7]: 0.0031 s⁻¹ | kon [7]: 470000 M⁻¹ s⁻¹ | Relative MFI (Fold) [8]: 0.9 fold | Relative MFI(%) at 250nM [9]: 88.2%

B4: HL161-10E (antibody, V domains shown)
VH: QVQLVESGGGLVQPGGSLRLSCAASGFRFSNFAMTWVRQAPGKGLEWVSTLSGSGGSIHHADSVKGRFTISRDNSKNTLYLQMNSLRAEDTAVYYCAKGPLRGQPAYLDPWGQGTLVTVSS
VL: SYELTQPLSVSMSPGQTARITCSGDALSKQYASWYQLKPGQAPVVVMYKDTERPSGIPDRFSGSSSGTTVTLTISGVQAEDEADYYCQSITDKSGTDVIFGGGTKLTVL
notes: as for B1
kon [7]: 310000 M⁻¹ s⁻¹
